Target: T1, N terminally FLAG-tagged Tgl2 (S. cerevisiae, UniProt P54857 1-326)
T1 construct: Tgl2, S. cerevisiae; FLAG tag inserted at the N terminus of the ORF of Tgl2; the printed primer puts Met-FLAG directly before the second codon (AAA) of Tgl2; also called FLAG-Tgl2; source: S. cerevisiae tgl2Δ cells, coexpressed with HA-Tgl2 from plasmid pYX122; in solubilised mitochondria; not shown: FLAG, N-terminal, kept
T1 sequence (looked up): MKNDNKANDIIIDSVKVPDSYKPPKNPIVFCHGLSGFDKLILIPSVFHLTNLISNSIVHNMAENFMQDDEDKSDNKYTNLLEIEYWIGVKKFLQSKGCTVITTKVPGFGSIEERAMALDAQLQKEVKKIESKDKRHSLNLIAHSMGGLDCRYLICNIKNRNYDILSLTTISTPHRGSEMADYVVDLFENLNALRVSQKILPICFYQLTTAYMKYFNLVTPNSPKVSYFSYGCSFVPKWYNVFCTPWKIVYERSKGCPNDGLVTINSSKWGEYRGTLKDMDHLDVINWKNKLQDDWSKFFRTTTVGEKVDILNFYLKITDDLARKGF
Test: native gel or EMSA; antibody shift assay: digitonin-solubilised mitochondria with HA-Tgl2 and FLAG-Tgl2 incubated with 0, 0.5 or 1 μl anti-HA antibody on ice for 30 min, BN-PAGE, immunodecoration with anti-FLAG
Details: partners not purified

B1: N terminally hemagglutinin (HA) tagged Tgl2 (natural protein, S. cerevisiae, UniProt P54857 1-326, looked up)
chain: T1 sequence (looked up)
notes: Tgl2, putative mitochondrial triacylglycerol lipase of the intermembrane space, S. cerevisiae; also called HA-Tgl2; native-like HA-Tgl2; source: S. cerevisiae (tgl2Δ, yme1Δ and other deletion strains), overexpressed from plasmid pYX142; in whole cell lysate, crude or isolated mitochondria; not shown: HA, N-terminal, kept
stoichiometry N: ≥ 2

From article PMC11889585, “Characterization of the putative yeast mitochondrial triacylglycerol lipase Tgl2” (The Journal of Biological Chemistry, 2025)
